Molecular target: tetrameric biotin non-binding streptavidin 'Dead' (SA-4D) (UniProt P22629)
Experiment: SDS-PAGE without boiling; refolded, purified SA-A and SA-D; samples not subjected to thermal denaturation keep the tetramer

stoichiometry N: 4
Substance: tetrameric biotin non-binding streptavidin 'Dead' (SA-4D) (from UniProt P22629 25-183) (natural protein)

From paper PMC8504119
